Assay results taken from the nanobody polyreactivity screen of Harvey et al. (2022).

Assay: yeast display, Sf9 membrane polyspecificity reagent, FACS + sequencing; frameworks hold sequencing errors
In short: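 Genes from sorted yeast were amplified by colony PCR, read by MiSeq 2 × 250 sequencing and filtered on CDR length. These cells carried a synthetic nanobody library in Saccharomyces cerevisiae BJ5465 and were sorted by FACS into low and high (top ~1%) gates on anti-HA and streptavidin fluorescence. Polyreactivity is labelled according to the gate of origin.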

Row | Sequence | polyreactivity (PSR sort gate)
1 | QVQLVESGGGLVQAGGSLRLSCAASGSTFGSYAMGWYRQAPGKERELVASISSRGGSTYYADSVKGRFTISRDNAKNTVYLQMNSLKPEDTAVYYCPATRYSAYSRGKYNFWGQGTQVTVSS | high polyreactivity
2 | QVQLVESGGGLVQAGGSLRLSCAASGFIFASNAMGWYRQEPGKERELVASITIGDSTYYADSVKGRFTISRDNAKNTVYLQMNSLKPEDTAVYYCAAVKTVDVGYDYWGQGTQVTVSS | low polyreactivity
3 | QVQLVESGGGLVQAGGSLRLSCAASGSIFNYYAMGWYRQAPGKERELVATITRGGSTYYADSVKGRFTISRDNAKNTVYLQMNRLKPEDTAVYYCAKVGRSTAYQNGYDYWGQGTQVTVSS | low polyreactivity
4 | QVQLVESGVGLVQAGRSLSLICAASGSTFFLYGMGWYIQAPGKERDLVAAITWNGGSTYYADSVKGRFTISRDNAKNTVYLQMKSLKPEDTAVYYCAADYYGFFSTPYDYWGQGTQVSVSS | low polyreactivity
5 | QVQLVESGGGLVQAGGSLRLSCAASGSTFGVNAMGWYRQAPGKERELVADMSFRTDSTYYADSVKGRFTISRDNAKNTVYLQMNRLNPEDTAVYYCAAEVPYYYPGFYSYYDDSDYWGQGTQVTVSS | low polyreactivity
6 | QVHLVESGGGLVQAGGSLRLSCAASGSTFPANAMGRYRQAPGKERELVAAITSGGSTNYADSVKGRFTISRDNAKNTVYLQMNSLKPEDTAVYYCADESYQAHSFYVYYGYDYWGQGTQVTVSS | low polyreactivity
7 | QVQLVESGGGLVQAGGSLRISCAASGLTFWAYAMGWYRQAPGKEREFLAAISWSGDSTYYADSVKGRFTISRDNAKNTVYLQMNSLKPEDTAVYYCAAEWYYVYIAPYDYWGLGTQVTVSS | low polyreactivity
8 | QVQLVESGGGLVQAGGSLRLSCAASGSIRSYAMGWYRQAPGKERELVAAITRSGGSTYYADSVKGRFTISRDNAKNTVYLQMNSLKPEDTAVYYCAAEVRGKSRSTRVSYRYDYWGQGTQVTVSS | high polyreactivity
9 | QVQLVESGGGLVQAGGSLRLSCAASGSIIFVYAMGCYRQAPGKERELVAGINSSGTSTYADSVKGRFTISRDNAKNTVYLQMNSLKPEDTAVYYCAARWFYYRWAYDYWGQGTQVTVSS | low polyreactivity
10 | QVQLVESGGGLVQAGGSLRLSCAASGRIFRTKAMGWYRLAPGKERELVAAITFSGGGTYYADSVKGRFTISRDNAKNTVYLQMNSLKPEDTAVYYCATDWYYEYYYWGQGTQVTVSS | low polyreactivity
11 | QVQLVESGGGLVQAGGSLRLSCAASGLIFPAYAMGWYRQAPGKERELVAAISYSGGRTYYADSVKGRVTISRDNAKNTVYLQMNSLKPEDTAVYYCNTGYWYVSLGSYDYYGEYDYWGQGTQVTVSS | high polyreactivity
12 | QVQLVESGGGLVQAGGSLRLSCAASGIILSLYAMGWYRQAPGKERELVATIRFSGGSTYYADSVKGRFTISRDNAKNTVYLQMNSLKPEDTAVYYCNKHLATTFTVSRFDYWGQGTQVTVSS | low polyreactivity
13 | QVQLVESGGGLVQAGGSLRLSCAAYGYTFGYYTMGWYRQAPWKERQLVASIDSGGGTNYADSVKGRFTISRDNAKNTVYLQMNSLKPEDTAVYYCAAESPLYWVDDFESGWRYYYWGQGTQVTVSS | low polyreactivity
14 | QVQLVESRGGLVQAGGSLRLSCAPSGLIFWAYARGWYRQAPGNERELVAAINWRGGSTYYADSVKGRFTISRDNAKNTVYLQMNSLKPEDTAVYYCAADSYYDEYDYWGQGTQVTVSS | low polyreactivity
15 | QVQLLESGGGLVQAGGSLRLSCAASGSIFVINVMGWYRQAPRKDRELVATITGGRSTKYADSVNGRFTISRDNAKNTVYLQMNSLKPEDTAVYYCNIQSKSRGVHDPSGYDYWGQGTQVTVSS | low polyreactivity
16 | QVQLVESGGGLVQAGGSLRLSCAASGIIFASNAMGWYRQAPGKERELVAAISGSGGRTYYADSVKGRFTISRDTAKNTVYLQMNSLKPEDTAVYYCAAARANNYDYWGQGTQVTVSS | high polyreactivity
17 | QVQLVESGGGLVQAGGSLRLSCAASGYIFIRNAMGWYRPAPGKDRELVAAISWTGGNTYYADSVKGRFTISRDNAKNTVYLQMNSLKPEDTAVYYCAALRSVFKSFRTTYVRYDYWGQATQVTVSS | high polyreactivity
18 | QVQLVESGGGLVQAGGSLRLSCAASGRIFYIYAMGWYRQAPGKERELVATITGSGGGTYYADSVKGRFTISRDNAKNTVYLQMNSLKPEDTAVYYCAAQVLTDPDNYWGQGTQVTVSS | low polyreactivity
19 | QVQLVESGGCLVQAGGSLRLSCAASGSLFKPYAMGWYIQAPGKEREFVAAINRGGTSTYYADSVKGRFTIARDNAKNTVFLQMKSLKPEDTAVYYCNAESPYYADGDTVRDDYWGQGTQVTVSS | low polyreactivity
20 | QVQLVESGGGLVQAGGSLRLSCAASGSTFSSYAMGWYRQAPGKERELVAAISSRGGRTYYADSVKGRFTISRDNAKNTVYLQMNSLKPEDTAVYYCAVVPFTEHDYWGQGTQVTVSS | high polyreactivity
21 | QAQLVETGGGLVQAGGSRRLSCAASGRTYKGYVMGWYRQAPGKEREFVAVITRDGGSTYYAVSVKGRFTISRDNAKNTVYLEMKSLKPEDTEVYYCASTYYPVAGEYDYWGQGTKVTVSS | low polyreactivity
22 | QVQLVESGGGLVQAGGSLRLSCAASGRIIGFNAMGWYRQAPGKEMELVASIRTTGGSTRYADSVKGRFTISRDNAKNTVYLQMNSLKREDTAVYYCAARWGKTLWQYNYWGQGTQVTVSS | high polyreactivity

Row | Sequence | polyreactivity (PSR sort gate)
23 | QVQLVESGGGLVQAGGSLRLICAASGLTFKQYVMGWYRQAPGKERELVAAIHNGTSTYYADSVKGRFTISRDNAKNTVYLQMNSLKPEDTAVYYCAADGLGFNTYDYWGQGTQVTVSS | low polyreactivity
24 | QVQLVESGGGLVQAGGSLRLSCAASGFTFQDYAMGWYRQAPGKERELVAAISTSDGNTYYADSVKGRFTISRDNAKNTVYLQMNSLKPEDTAVYYCAAQRNYGWVKFYYWGQGTQVTVSS | high polyreactivity
25 | QVQLVESGGGLVQAGGSLRLSCAASGIIFGDKAMGWYRQAPGKERELVAAITIGGTSTYYADSVKGRFTISRDNAKNTVYLQMNRLKPEDTAVYYCAKTILYDCDYWGQGTQVTVSS | low polyreactivity
26 | QVQLVESGGGLVQAGGSLRLSCAASGGIFTYYAMGWYRQAPGKERELVAAISASGGSTYYADSVKGRFTISRDNAKNTVYLQMNSLKPEDTAVYYCAAGLPYGYGYDYWGQGTQVTVSS | low polyreactivity
27 | QVQLVESGGGLVQAGGSLRISCAASGSIFYVYAMGLYRQAPGKERELVAAISRRGARTYYADSVKGRFTISRDNAKNTVYLQMNSLKPEDSAVYYCNADQYYTVGYSAEYEYWGQGTQVTVSS | low polyreactivity
28 | QVQLVESGGGLVQAGGSLRLRCAASGFIFAWDAMGWYRQAPGKERELVATISGSGGRTYYADSVKGRFPISRDNAKNTVYLQMISLKPEETAVYYCATRAQGTSWYRTSKYDYWGQGTQVIVSS | high polyreactivity
29 | QVQLVESGGGLVQAGGSLRLSCAASGRTFGGYTMGWYRQAPGKERELVAAITGSGSNTYYADSVKGRFTISRDNAKNTVYLQMNSLKPEDTAVYYCAAPYSYRTWYPYGYWGQGTQVTVSS | high polyreactivity
30 | QVQLQESGGGLVQAGVSLRLSGAASGYISTFSSEMGWYRQAPVKERELVASIAPGCTTSYADSVKGRFTISRDNAKNTVYLQMNSLKPEDTAVYYCAVDYTVPASFGYWGQGTQVTVSS | high polyreactivity
31 | QVQLVESGGGLVQAGGSLRLSCAASGFTFVYNAMGWYRQAPGKERELVAAITSGGNTYYADSVKGRFTISRDNAKNTVYLQMNSLKPEDTAVYYCAKRGYVRYYAYDYWGQGTQVTVSS | high polyreactivity
32 | QVQLVESGGGLVQEGGSLRLSCAASGSTFYIYGMGWYRQAPGKERELVARISSGGSTYADSVKGRFTISRDNAKNTVYLQMYSLKPEDTAVYYCAAAAARTYRRYRYEGYFYWGQGTQVTVSS | high polyreactivity
33 | QVQLVESGGGLVQAGGSLRLSCAASGRTFWKYAMGWYRQAPGKERELVAAITASGARTYYADSVKGRFTISRDNAKNTVYLQMNSLKPEDTAVYYCNAGSVSDRQMDYWGQGTEVTVSS | low polyreactivity
34 | QVQLVESGGGLVQAGGSLRLSCAASGFTFRSNAMGWYRQAPGKERELVAAITRGGGSTYYADSVKGRFTISRDNEKNTVYLQMNSLKPEDTAVYYCAAGGFRTSRRDYWGQGTQVTVSS | high polyreactivity
35 | QVQLVESGGGLVQAGGSLRLTCAASGRTFTRYAMGWYRQAPGKERELVAAISGGGGSTYYADSVKGRFTISRDNAKNTVYLQMNSLKPEDTAVYYCNAAARGSSFDYWGQGTQVTVSS | low polyreactivity
36 | QVQLVESGGGLVQAGGSLRLSCAASGSIFNAYAMGWYRQAPGKERELVAAISKRTSYADSVKGRFTISRDNAKNTVYLQMNSLKPEDTAVYYCAKEVDEPDGYEYDYWGQGTQVTVSS | low polyreactivity
37 | QVQLVESGGCLVQAGGSLRLSCAASGSTFNKYAMGWYRQAPGKERELVAAIRSNGVRTYYADSVKGRFSISRDNAKNTVYLQMNSLKPEDTPVYYCNKRYTYRYDYWGQGTQVCVSS | high polyreactivity
38 | QVQLVESGGGLVQAGGSLRLSCAASGLTFYVYAMGWYRQAPGKEREFVAAISWSGTSTSYADSVKGRFTISRDNAKNTVYLQMNSLKPEDTAVYYCAADSFASVYFGTGYDYWGQGTQVTVSS | low polyreactivity
39 | QVQLVESGGGLVQAGGSLRLSCAASGSIFVANAMGWYRQAPGKETELVAAISQDGGTKYYADSVKGRFTISRDNAKNTVYLQMNSLKPEDTAVYYSAAEYPSFPEDDEYDYWGQGTQVTVSS | low polyreactivity
40 | QVQLVESGGGLVQAGGSLRLSFAASGSIINAYAMGWYRQAPGKERELVAAINSGGTTYYADSVKGRFTISRDNAKNTVYLQLNSLKPEDTAVYYCAKTRSYGRSGVSRRDGFYYWGQGTQVTVSS | high polyreactivity
41 | QVQLVESGGGLVQAGGSLRLSCAGSGRTFGRYAMGGYRQAPGKERELVAAIRSGGSTYYADSVKGRFTISRDNAKNTVYFQMNSLKPEDTAVYYCAADSTSLYNYWGQGTQVTVLS | low polyreactivity
42 | QVQLVESGGGLVQAGGSLRLSCAASGNTFAYNTMGWYRQAPGKERELVAAIRTRGGSTYYADSVKGRFTISRDNAKNTVYLQMNSLKPEDTAVYYCAADYRYHGYWSYDYWGQGTQVTVSS | low polyreactivity
43 | QVQLVESGGGLVQAGGRLRLSCAASGFTFGDNAMGWYRQAPGKERELVAAITSSGSTNYADSVKGRFTISRDNAKNTVYLQMNSLKPEDTAVYYCNAEDSVDAPVYKDLGSEYDSWGQGTQVTVSS | low polyreactivity
